Among the targets are HLA-A*02:05; HLA-A*02:01; HLA-A*02:02.
Common to all, as to assay: IEDB peptide-MHC binding, cellular MHC/competitive/radioactivity; ≥ and ≤ were set here for values at or beyond the usual limits of such assays
Where [1] appears, read: source organism: Hepatitis B virus subtype adw2.
Where [2] appears, read: source organism: Human immunodeficiency virus type 1 BH10.
Where [3] appears, read: source organism: Human immunodeficiency virus 1.

For orientation: IC50 means the concentration at which inhibition is half-maximal.

Regarding LLPIFFCLWV, the concentration for half-maximal inhibition (IC50) with HLA-A*02:05 (setting [1]) is 10000 nM.
As to STLPETTVVRR, the figures for the IC50 with HLA-A*02:01 (setting [1]), with HLA-A*02:02 (setting [1]) and with HLA-A*02:05 (setting [1]) were 1310 nM, 10000 nM and 10000 nM, respectively.
ILKEPVHGV: the IC50 was 150 nM with HLA-A*02:02 (setting [2]) and 9.4 nM with HLA-A*02:05 (setting [2]).
With EADPTGHSY, the half-inhibitory concentration (IC50) with HLA-A*02:01 (source organism: Homo sapiens), in the experiment with HLA-A*02:02 (source organism: Homo sapiens) and with HLA-A*02:05 (source organism: Homo sapiens) was 10000 nM throughout.
For IVGAETFYV, the IC50 was 3.5 nM with HLA-A*02:01 (source organism: HIV-1 M:B_MN), 62 nM with HLA-A*02:02 (source organism: HIV-1 M:B_MN) and 6.5 nM with HLA-A*02:05 (source organism: HIV-1 M:B_MN).
Consider LLGRNSFEV, for which the values for the IC50 with HLA-A*02:02 (source organism: Homo sapiens) and in the experiment with HLA-A*02:05 (source organism: Homo sapiens) were 87 nM and 19 nM, respectively.
Regarding DPKVKQWPL, the IC50 with HLA-A*02:02 (setting [3]) and with HLA-A*02:05 (setting [3]) was 10000 nM each time.
As for YLHTLWKAGI, the IC50 in the experiment with HLA-A*02:02 (setting [1]) turned out to be 53 nM; with HLA-A*02:05 (setting [1]) it was 57 nM.
For WLSLLVPFV, the values for the IC50 with HLA-A*02:02 (setting [1]) and with HLA-A*02:05 (setting [1]) were 34 nM and 4 nM, respectively.

Source of the values: the Immune Epitope Database (IEDB).
